Data published in article PMC2970747.

Molecular target: FLAG-Mfn2 (UniProt O95140)
Assay: co-IP

UniProt O95140, sequence (O95140 whole entry): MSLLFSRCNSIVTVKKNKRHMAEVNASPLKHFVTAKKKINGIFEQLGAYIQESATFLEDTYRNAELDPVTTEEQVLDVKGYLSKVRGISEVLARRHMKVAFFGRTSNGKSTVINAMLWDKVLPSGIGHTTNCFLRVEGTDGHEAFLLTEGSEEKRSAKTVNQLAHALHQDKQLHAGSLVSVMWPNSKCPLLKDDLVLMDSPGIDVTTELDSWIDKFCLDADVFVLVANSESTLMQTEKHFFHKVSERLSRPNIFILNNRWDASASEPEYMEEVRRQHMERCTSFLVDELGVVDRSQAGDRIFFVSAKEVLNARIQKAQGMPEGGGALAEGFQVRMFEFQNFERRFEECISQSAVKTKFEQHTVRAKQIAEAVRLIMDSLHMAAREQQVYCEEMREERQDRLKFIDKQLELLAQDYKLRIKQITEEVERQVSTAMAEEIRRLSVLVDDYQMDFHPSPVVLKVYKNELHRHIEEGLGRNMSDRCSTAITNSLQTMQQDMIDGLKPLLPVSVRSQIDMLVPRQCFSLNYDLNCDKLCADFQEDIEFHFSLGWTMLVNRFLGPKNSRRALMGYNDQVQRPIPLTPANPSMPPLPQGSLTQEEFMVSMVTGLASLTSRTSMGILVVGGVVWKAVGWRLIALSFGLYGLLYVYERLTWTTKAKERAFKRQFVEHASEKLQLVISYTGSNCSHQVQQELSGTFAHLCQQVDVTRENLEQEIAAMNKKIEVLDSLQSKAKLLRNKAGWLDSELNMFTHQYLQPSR

- percent of GFP-Bcl-xL/Bax H5 bound to FLAG-Mfn2: 3%
Substance: GFP-Bcl-xL/Bax H5
